Measurements: paper PMC10484683
Where two headings read alike, the source gives them in different places.

Columns and labels:
[1] = biological target: T1, CTCF ZF3-ZF11 (Homo sapiens, UniProt P49711 322-577); test: X-ray crystallography
T1 sequence: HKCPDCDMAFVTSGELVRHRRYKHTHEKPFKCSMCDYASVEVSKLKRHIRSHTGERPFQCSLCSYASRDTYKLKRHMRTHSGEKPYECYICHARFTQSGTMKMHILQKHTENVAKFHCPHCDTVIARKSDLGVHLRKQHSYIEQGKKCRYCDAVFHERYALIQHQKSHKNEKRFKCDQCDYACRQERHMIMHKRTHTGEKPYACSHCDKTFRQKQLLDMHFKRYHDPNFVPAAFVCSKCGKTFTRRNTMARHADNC

[2] = biological target: T2, CTCF ZF1-ZF7 (Homo sapiens, UniProt P49711 263-465); test: X-ray crystallography
T2 sequence: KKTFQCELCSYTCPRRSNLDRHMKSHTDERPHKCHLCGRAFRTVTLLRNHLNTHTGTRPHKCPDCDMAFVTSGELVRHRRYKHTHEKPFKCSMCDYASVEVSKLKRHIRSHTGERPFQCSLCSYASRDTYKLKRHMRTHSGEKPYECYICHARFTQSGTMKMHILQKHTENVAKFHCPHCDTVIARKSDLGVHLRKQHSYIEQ

[3] = biological target: T2, CTCF ZF1-ZF7; test: fluorescence polarization
[4] = biological target: T1, CTCF ZF3-ZF11; test: X-ray crystallography; remark: listed apart in the source

B1: 19-bp (dsDNA)
DNA 1: TGCGCCCCCTGCTGGTCCT
DNA 2: AGGACCAGCAGGGGGCGCA
**Q.** Does B1 bind [1]?
**A.** binds

B2: 23-bp (dsDNA)
DNA 1: GCCAGCAGGGGGCGCTAGTGAGG
DNA 2: CCTCACTAGCGCCCCCTGCTGGC
**Q.** Does B2 bind [2]?
**A.** binds

B3: FP oligo X:Y=A:T (dsDNA)
DNA 1: AGGACCAGCAGGGGACGCA
DNA 2: TGCGTCCCCTGCTGGTCCT
**Q.** For B3, which binding signal [3] is on record?
**A.** 7 fold reduced affinity vs G:C

B4: 35-4 (dsDNA)
DNA 1: GTGCAGTACCACATTTAACCAGCAGGGGGCGCTAA
DNA 2: TTAGCGCCCCCTGCTGGTTAAATGTGGTACTGCAC
**Q.** Does B4 bind [4]?
**A.** binds
